Consider one protein from publication PMC7910490, “The biosynthetic pathway of potato solanidanes diverged from that of spirosolanes due to evolution of a dioxygenase” (Nature Communications, 2021).

Substrate in series [1]: C[C@H]1CC[C@]2(NC1)O[C@H]1C[C@H]3[C@@H]4CC=C5C[C@@H](O)CC[C@]5(C)[C@H]4CC[C@]3(C)[C@H]1[C@@H]2C
As to the kind of experiment: purified protein, by the assay type. The settings on record: pH 7.2. The arrangement: LC-MS of product formation by purified recombinant enzyme; Michaelis-Menten nonlinear regression (ANEMONA). The procedure: (§1) An in vitro enzyme activity assay was performed using 100 μl of reaction mixture containing 100 mM Bis–Tris–HCl (pH 7.2), 5 mM 2-oxoglutarate, 10 mM sodium ascorbate, 0.2 mM FeSO4, 25 μM substrate, and 1 μg purified recombinant proteins as the enzyme. The reaction was initiated by the addition of the enzyme and was carried out at 30 °C for 30 min. The reaction was then stopped by incubation for 2 min at 90 °C. After centrifugation, 20 μl of supernatant was diluted with 180 μl methanol and filtered through 0.2-μm nylon membrane filters (Acrodisc, Waters). An aliquot (2 μl) was analyzed using LC–MS, as described in “Feeding experiments” above. We determined the kinetic parameters of the recombinant DPS and St7070 in triplicate assays. The assays were conducted as described above, with minor modifications. Briefly, 0.1 μg purified DPS protein or 0.02 μg purified St7070 were used. […] A 20 μl sample of assay mixture was diluted with 180 μl methanol and filtered through 0.2-μm nylon membrane filters (Acrodisc, Waters). An aliquot (2 μl) was analyzed using LC–MS, as described above. The kinetic parameters were determined by nonlinear regression, using the ANEMONA program. Supplementary Fig. 21| Enzyme kinetics of purified recombinant DPS and St7070 with a-solamarine and (22S,25S)-spirosol-5-en-3b-ol. […]

Substrate in series [2]: C[C@H]1CC[C@]2(NC1)O[C@H]1C[C@H]3[C@@H]4CC=C5C[C@@H](O[C@@H]6O[C@H](CO)[C@H](O)[C@H](O[C@@H]7O[C@H](CO)[C@@H](O)[C@H](O)[C@H]7O)[C@H]6O[C@@H]6O[C@@H](C)[C@H](O)[C@@H](O)[C@H]6O)CC[C@]5(C)[C@H]4CC[C@]3(C)[C@H]1[C@@H]2C
Put plainly: purified protein, by the assay type. Also on record: LC-MS of product formation by purified recombinant enzyme; Michaelis-Menten nonlinear regression (ANEMONA). The settings on record: pH 7.2. The method, then: as §1

B1: St7070 (Solanum tuberosum) (protein)
chain: MASTKVTIPTIDFFNSELKPNTPQWELTKVQVFEALQEFGCFEAIYNKVPNEIREGMFDTLKEVFDFPLSKLIEYREKPFHIYDGQIPSVPLFGSVYSADLVLPNSVETFANTFWSHGNPNFSNVAKSYFKQLMELNGMVEKMVLESLGLKNYIDEFLNSNVYMSRFTNYKVIKGENENKSGLPSHTDSSYLTIIKQNQNGLQVLYKNGEWIELNHTSPNSYIVLSADALMAWTNDRLTSAQHRVVTTGDKDRFSVQLFSLVNPDYTLKVPKELVDEEHPLMYKPFKMPEYNKYLMLGAKNGLGVKNYCGL
Usually Km stands for the concentration of substrate that gives half-maximal velocity. Take B1: the Michaelis constant (Km) is 19.6 ± 0.056 µM in series [1] and 1.7 ± 0.24 µM in series [2].
